For test [1], the target named is T1, DPP-IV (Sus scrofa, UniProt P22411). As to conditions: for RELATIVE POTENCY [%]: signal relative to the highest signal obtained in this test (LPL and IPI). The source says: About 40 protein hydrolysates were subjected to on-line liquid chromatography (LC)-biochemical detection (BCD)-mass spectrometry (MS), a method that allowed for separation of crude extract by HPLC, after which the presence of bioactive compounds was detected by means of an on-line biochemical assay. This method for on-line fractionation and characterisation has extensively been described by Van Elswijk et al. (J Chromatography A (2003) 1020:45-58).
T1 sequence (P22411 whole entry): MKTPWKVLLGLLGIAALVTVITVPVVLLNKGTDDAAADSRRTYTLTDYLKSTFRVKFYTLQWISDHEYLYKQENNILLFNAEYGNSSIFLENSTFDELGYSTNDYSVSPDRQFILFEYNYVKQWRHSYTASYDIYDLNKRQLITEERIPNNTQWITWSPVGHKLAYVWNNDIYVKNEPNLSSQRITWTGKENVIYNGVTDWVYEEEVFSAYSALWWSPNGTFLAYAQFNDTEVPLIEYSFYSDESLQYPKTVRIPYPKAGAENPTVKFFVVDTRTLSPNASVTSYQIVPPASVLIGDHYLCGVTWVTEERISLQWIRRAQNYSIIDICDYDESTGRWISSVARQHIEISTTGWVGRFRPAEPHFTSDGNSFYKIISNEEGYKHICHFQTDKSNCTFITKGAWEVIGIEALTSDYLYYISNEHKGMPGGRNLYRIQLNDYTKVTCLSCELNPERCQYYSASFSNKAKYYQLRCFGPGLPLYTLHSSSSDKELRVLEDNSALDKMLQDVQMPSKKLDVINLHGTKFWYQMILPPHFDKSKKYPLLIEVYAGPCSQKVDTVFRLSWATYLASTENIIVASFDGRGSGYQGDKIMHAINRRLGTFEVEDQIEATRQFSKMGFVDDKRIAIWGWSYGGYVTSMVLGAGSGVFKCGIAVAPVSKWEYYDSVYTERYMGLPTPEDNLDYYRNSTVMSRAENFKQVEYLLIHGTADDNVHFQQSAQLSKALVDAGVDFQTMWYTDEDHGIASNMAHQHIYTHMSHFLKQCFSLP
A variety of protein hydrolysates prepared according to example 2 were further investigated for DPP-IV inhibiting activity. Hydrolysed protein samples were analysed for DPP-IV inhibitory activity in a high-resolution screening (HRS) instrument, as discussed in Van Elswijk et al. (supra).
DPP-IV inhibition was monitored via the substrate conversion based bioassay format as disclosed in example 1. In addition to the DPP-IV inhibitory activity data, chemical information was obtained in real-time by allowing part of the HPLC effluent to be directed towards a mass spectrometer. […] The assay conditions applied ensured maximum enzyme activity by applying substrate saturation.

In test [2] the target is T1, DPP-IV. The test is described as follows: In vitro DPP-IV inhibition assay with Gly-Pro-p-nitroanilide substrate (absorption at 385 nm). In kind it is biochemical. Details: purchased Sigma D-7052. The conditions noted are these: unhydrolysed control proteins, DH 0%. The procedure:
DPP-IV activity can be determined by measuring the increase in absorption at 385 nm using Gly-Pro-p-nitroanilide (Sigma G-0513) as DPP-IV substrate. A decrease in DPP-IV activity is a measure for the inhibition.
13.152 mg Gly-Pro-p-nitroanilide (substrate; Sigma G-0513) was dissolved in 1 ml Tris buffer, pH 8.0. DPP-IV (Sigma D-7052) was diluted with Tris buffer, pH 8.0 to 1.1 Unit/ml. The substrate was diluted 50-fold with Tris buffer, pH 8.0. The samples were prepared by diluting a protein hydrolysate to a 1 wt. % protein solution in Tris buffer, pH 8.0. The samples were then serially diluted to obtain a range of sample concentrations. 50 μl of the different serially diluted samples and 50 μl of the diluted substrate were then pipetted in wells of a microtiter plate with 96 wells. Subsequently, 100 μl of the diluted enzyme was pipetted in each well of a plate with 96 wells. Then the increase in absorption at 385 nm was determined and DPP-IV activities at different concentrations of a variety of protein hydrolysates were determined, from which the IC50 (i.e. the concentration of inhibitor (particular protein hydrolysate) that inhibits 50% of the DPP-IV activity) could be derived. […] The degree of hydrolysis was determined using the o-phtaldialdehyde method, which is well known in the art.

In the case of VTKCCTE, the “DPP-IV inhibiting activity (qualitative)” value with DPP-IV [1] (additional peptides) is reported as “DPP-IV inhibiting compounds”. As for GPFP, the “RELATIVE POTENCY [%]” value with DPP-IV [1] came out at 34%. Take PLLQ: in the test with DPP-IV [1], the “RELATIVE POTENCY [%]” value was found to be 37%. Turning to LPVP, the “RELATIVE POTENCY [%]” value with DPP-IV [1] stood at 15%.

HPIK: the “RELATIVE POTENCY [%]” value with DPP-IV [1] is 6%. Regarding PFP, in the test with DPP-IV [1], the “RELATIVE POTENCY [%]” value is 20%. Same read-out and setting: then MPLW, with 23%. As to `CC[C@H](C)[C@H](N)C(=O)N1CCC[C@H]1C(=O)N[C@H](C(=O)O)[C@@H](C)CC` [IPI], at DPP-IV [1], the “RELATIVE POTENCY [%]” value was 100%. Sodium caseinate: on DPP-IV [2], the “inhibition of the enzyme DPP-IV” value was “did not inhibit”.

As to LPLP, in the test with DPP-IV [1], the “RELATIVE POTENCY [%]” value was 11%. Still for that read-out and setting: then KVLP, with 98%.

For the origin of these results see patent publication US8273710B2, “Protein hydrolysate enriched in peptides inhibiting DPP-IV and their use” (Campina Nederland Holding B.V., priority 2004, dated 2012).
